Results: patent US20230048960A1 (University of Washington, published 2023)
Square brackets hold non-standard residues; d marks the D form. dNle = CCCC[C@@H](N)C(=O)O; Nle = CCCC[C@H](N)C(=O)O

These binders were tested against Aβ42 (UniProt P05067 672-713) (assay: cell-based or functional assay).
Chain of Aβ42 (P05067 672-713 limits assumed): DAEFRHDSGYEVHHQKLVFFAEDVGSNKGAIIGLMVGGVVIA

Binder | % inhibition of fibril formation (ThT), AP:Aβ42 1:1 [%] | % inhibition of fibril formation (ThT), AP:Aβ42 1:10 [%] | % inhibition of fibril formation (ThT), AP:Aβ42 1:100 [%]
Ac-RGE[dNle]N[dY]F[dW]MNEYYGW[dT]M[dN]M[dR]CGK-NH2 (SMILES CCCC[C@@H](NC(=O)[C@H](CCC(=O)O)NC(=O)CNC(=O)[C@H](CCCNC(=N)N)NC(C)=O)C(=O)N[C@@H](CC(N)=O)C(=O)N[C@H](Cc1ccc(O)cc1)C(=O)N[C@@H](Cc1ccccc1)C(=O)N[C@H](Cc1c[nH]c2ccccc12)C(=O)N[C@@H](CCSC)C(=O)N[C@@H](CC(N)=O)C(=O)N[C@@H](CCC(=O)O)C(=O)N[C@@H](Cc1ccc(O)cc1)C(=O)N[C@@H](Cc1ccc(O)cc1)C(=O)NCC(=O)N[C@@H](Cc1c[nH]c2ccccc12)C(=O)N[C@@H](C(=O)N[C@@H](CCSC)C(=O)N[C@H](CC(N)=O)C(=O)N[C@@H](CCSC)C(=O)N[C@H](CCCNC(=N)N)C(=O)N[C@@H](CS)C(=O)NCC(=O)N[C@@H](CCCCN)C(N)=O)[C@H](C)O) [AP533m] | 40.3 | 0 | 0
Ac-RGE[dM]C[dY]F[dW]MNEYYGW[dT]M[dN]M[dR][Nle]GK-NH2 (also: disulfide-linked homodimer via Cys5) [AP532d] | 94.2 | 75.4 | 64.3
Ac-RGE[dNle]N[dY]F[dW]MNEYYGW[dT]M[dN]M[dC]RGK-NH2 (also: disulfide-linked homodimer via Cys20) [AP534d] | 100 | 92.2 | 51.3
Ac-RGE[dC]N[dY]F[dW]MNEYYGW[dT]M[dN]M[dR]MGK-NH2 (SMILES CSCC[C@H](NC(=O)[C@@H](CCCNC(=N)N)NC(=O)[C@H](CCSC)NC(=O)[C@@H](CC(N)=O)NC(=O)[C@H](CCSC)NC(=O)[C@H](NC(=O)[C@H](Cc1c[nH]c2ccccc12)NC(=O)CNC(=O)[C@H](Cc1ccc(O)cc1)NC(=O)[C@H](Cc1ccc(O)cc1)NC(=O)[C@H](CCC(=O)O)NC(=O)[C@H](CC(N)=O)NC(=O)[C@H](CCSC)NC(=O)[C@@H](Cc1c[nH]c2ccccc12)NC(=O)[C@H](Cc1ccccc1)NC(=O)[C@@H](Cc1ccc(O)cc1)NC(=O)[C@H](CC(N)=O)NC(=O)[C@@H](CS)NC(=O)[C@H](CCC(=O)O)NC(=O)CNC(=O)[C@H](CCCNC(=N)N)NC(C)=O)[C@H](C)O)C(=O)NCC(=O)N[C@@H](CCCCN)C(N)=O) [AP530m] | 78.2 | 31.6 | 0
Ac-RGN[dW]N[dE]S[dK]MNEYSGW[dM]L[dM]C[dT]MGR-NH2 (also: disulfide-linked homodimer via Cys19) [AP500d] | 100 | 100 | 72.2
Ac-RGE[dM]C[dY]F[dW]MNEYYGW[dT]M[dN]M[dR][Nle]GK-NH2 (SMILES CCCC[C@H](NC(=O)[C@@H](CCCNC(=N)N)NC(=O)[C@H](CCSC)NC(=O)[C@@H](CC(N)=O)NC(=O)[C@H](CCSC)NC(=O)[C@H](NC(=O)[C@H](Cc1c[nH]c2ccccc12)NC(=O)CNC(=O)[C@H](Cc1ccc(O)cc1)NC(=O)[C@H](Cc1ccc(O)cc1)NC(=O)[C@H](CCC(=O)O)NC(=O)[C@H](CC(N)=O)NC(=O)[C@H](CCSC)NC(=O)[C@@H](Cc1c[nH]c2ccccc12)NC(=O)[C@H](Cc1ccccc1)NC(=O)[C@@H](Cc1ccc(O)cc1)NC(=O)[C@H](CS)NC(=O)[C@@H](CCSC)NC(=O)[C@H](CCC(=O)O)NC(=O)CNC(=O)[C@H](CCCNC(=N)N)NC(C)=O)[C@H](C)O)C(=O)NCC(=O)N[C@@H](CCCCN)C(N)=O) [AP532m] | 62.1 | 0 | 0
Ac-RGE[dY]N[dC]F[dW]MNEYYGW[dT]M[dN]M[dR]MGK-NH2 (SMILES CSCC[C@H](NC(=O)[C@@H](CCCNC(=N)N)NC(=O)[C@H](CCSC)NC(=O)[C@@H](CC(N)=O)NC(=O)[C@H](CCSC)NC(=O)[C@H](NC(=O)[C@H](Cc1c[nH]c2ccccc12)NC(=O)CNC(=O)[C@H](Cc1ccc(O)cc1)NC(=O)[C@H](Cc1ccc(O)cc1)NC(=O)[C@H](CCC(=O)O)NC(=O)[C@H](CC(N)=O)NC(=O)[C@H](CCSC)NC(=O)[C@@H](Cc1c[nH]c2ccccc12)NC(=O)[C@H](Cc1ccccc1)NC(=O)[C@@H](CS)NC(=O)[C@H](CC(N)=O)NC(=O)[C@@H](Cc1ccc(O)cc1)NC(=O)[C@H](CCC(=O)O)NC(=O)CNC(=O)[C@H](CCCNC(=N)N)NC(C)=O)[C@H](C)O)C(=O)NCC(=O)N[C@@H](CCCCN)C(N)=O) [AP535m] | 62.3 | 31.3 | 0

Now from value to binder:

% inhibition of fibril formation (ThT), AP:Aβ42 1:1 [%] | % inhibition of fibril formation (ThT), AP:Aβ42 1:10 [%] | % inhibition of fibril formation (ThT), AP:Aβ42 1:100 [%] | Binder
37.2 | 9.1 | 0 | Ac-RGE[dC]N[dY]F[dW]MNEYYGW[dT]M[dN]M[dR][Nle]GK-NH2 (SMILES CCCC[C@H](NC(=O)[C@@H](CCCNC(=N)N)NC(=O)[C@H](CCSC)NC(=O)[C@@H](CC(N)=O)NC(=O)[C@H](CCSC)NC(=O)[C@H](NC(=O)[C@H](Cc1c[nH]c2ccccc12)NC(=O)CNC(=O)[C@H](Cc1ccc(O)cc1)NC(=O)[C@H](Cc1ccc(O)cc1)NC(=O)[C@H](CCC(=O)O)NC(=O)[C@H](CC(N)=O)NC(=O)[C@H](CCSC)NC(=O)[C@@H](Cc1c[nH]c2ccccc12)NC(=O)[C@H](Cc1ccccc1)NC(=O)[C@@H](Cc1ccc(O)cc1)NC(=O)[C@H](CC(N)=O)NC(=O)[C@@H](CS)NC(=O)[C@H](CCC(=O)O)NC(=O)CNC(=O)[C@H](CCCNC(=N)N)NC(C)=O)[C@H](C)O)C(=O)NCC(=O)N[C@@H](CCCCN)C(N)=O) [AP531m]
85.2 | 68.2 | 51.4 | Ac-RGE[dNle]N[dY]F[dW]MNEYYGW[dT]M[dN]M[dR]CGK-NH2 (also: disulfide-linked homodimer via Cys21) [AP533d]
100 | 88.6 | 62.4 | Ac-[dR]G[dE]M[dN]L[dS]W[dM][dN][dE][dY][dS]G[dW]T[dM]N[dC]K[dM]G[dR]-NH2 (also: homodimer: D-Cys19 disulfide-bonded to D-Cys19 of other copy) [AP526d]
92.6 | 78.6 | 38.5 | Ac-RGE[dC]N[dY]F[dW]MNEYYGW[dT]M[dN]M[dR][Nle]GK-NH2 (also: disulfide-linked homodimer via Cys4) [AP531d]
40.2 | 11.2 | 0 | Ac-RGE[dNle]N[dY]F[dW]MNEYYGW[dT]M[dN]M[dC]RGK-NH2 (SMILES CCCC[C@@H](NC(=O)[C@H](CCC(=O)O)NC(=O)CNC(=O)[C@H](CCCNC(=N)N)NC(C)=O)C(=O)N[C@@H](CC(N)=O)C(=O)N[C@H](Cc1ccc(O)cc1)C(=O)N[C@@H](Cc1ccccc1)C(=O)N[C@H](Cc1c[nH]c2ccccc12)C(=O)N[C@@H](CCSC)C(=O)N[C@@H](CC(N)=O)C(=O)N[C@@H](CCC(=O)O)C(=O)N[C@@H](Cc1ccc(O)cc1)C(=O)N[C@@H](Cc1ccc(O)cc1)C(=O)NCC(=O)N[C@@H](Cc1c[nH]c2ccccc12)C(=O)N[C@@H](C(=O)N[C@@H](CCSC)C(=O)N[C@H](CC(N)=O)C(=O)N[C@@H](CCSC)C(=O)N[C@H](CS)C(=O)N[C@@H](CCCNC(=N)N)C(=O)NCC(=O)N[C@@H](CCCCN)C(N)=O)[C@H](C)O) [AP534m]
29.2 | 0 | 0 | Ac-RGN[dW]N[dE]S[dK]MNEYYGW[dM]L[dM]C[dT]MGR-NH2 (SMILES CSCC[C@H](NC(=O)[C@@H](CCCCN)NC(=O)[C@H](CO)NC(=O)[C@@H](CCC(=O)O)NC(=O)[C@H](CC(N)=O)NC(=O)[C@@H](Cc1c[nH]c2ccccc12)NC(=O)[C@H](CC(N)=O)NC(=O)CNC(=O)[C@H](CCCNC(=N)N)NC(C)=O)C(=O)N[C@@H](CC(N)=O)C(=O)N[C@@H](CCC(=O)O)C(=O)N[C@@H](Cc1ccc(O)cc1)C(=O)N[C@@H](Cc1ccc(O)cc1)C(=O)NCC(=O)N[C@@H](Cc1c[nH]c2ccccc12)C(=O)N[C@H](CCSC)C(=O)N[C@@H](CC(C)C)C(=O)N[C@H](CCSC)C(=O)N[C@@H](CS)C(=O)N[C@@H](C(=O)N[C@@H](CCSC)C(=O)NCC(=O)N[C@@H](CCCNC(=N)N)C(N)=O)[C@H](C)O) [AP501m]
100 | 98.2 | 53.7 | Ac-RGE[dY]N[dC]F[dW]MNEYYGW[dT]M[dN]M[dR]MGK-NH2 (also: homodimer: D-Cys6 disulfide-bonded to D-Cys6 of other copy) [AP535d]
